Reference: US20180036441A1 (Dana-Farber, published 2018)
Numbering of substitutions follows the chain as printed.

T1: MUC1-SEA-His protein (UniProt P15941 1039-1148, limits assumed)
T1 construct: domain: SEA; Recombinant antigen used for ELISA coating and as Biacore analyte; also called MUC-SEA-His; antigen protein; not shown: His tag
T1 sequence (looked up): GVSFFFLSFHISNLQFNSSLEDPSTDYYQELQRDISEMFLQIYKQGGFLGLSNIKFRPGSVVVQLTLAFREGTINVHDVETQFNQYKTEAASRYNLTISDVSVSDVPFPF

B1: VH4 + VL1 (antibody, V domains shown)
VH: QVQLVQSGAEVKKPGATVKISCKVSGYAFSNFWMNWVQQAPGKGLEWMGQIYPGDGDTNYNGKFKGRVTITADTSTDTAYMELSSLRSEDTAVYYCARSYYRSAWFAYWGQGTLVTVSR
VL: EIVLTQSPDFQSVTPKEKVTITCRASQSIGTSIHWYQQKPDQSPKLLIKYASESISGVPSRFSGSGSGTDFTLTINSLEAEDAATYYCQQSNNWPLTFGQGTKVEIK
notes: Humanized IgG expressed in HEK293; also called humanized antibody VH4+VL1
B2: VH2 + VL4 (antibody, V domains shown)
VH: B1 VH with T17S, I20V, V24A, Q38R, K43Q, I70M, A72R, D77S, A79V, R119S
VL: AIQLTQSPSSLSASVGDRVTITCRASQSIGTSIHWYQQKPGKAPKLLIYYASESISGVPSRFSGSGSGTDFTLTISSLQPEDFATYYCQQSNNWPLTFGGGTKVEIK
notes: Humanized IgG expressed in HEK293; also called humanized antibody VH2+VL4
B3: VH5 + VL1 (antibody, V domains shown)
VH: EVQLVQSGAEVKKPGESLKISCKGSGYAFSNFWMNWVRQMPGKGLEWMGQIYPGDGDTNYNGKFKGQVTISADKSISTAYLQWSSLKASDTAMYYCARSYYRSAWFAYWGQGTLVTVSL
VL: B1 VL
notes: Humanized IgG expressed in HEK293; also called humanized antibody VH5+VL1
B4: VH2 + VL3 (antibody, V domains shown)
VH: B1 VH with T17S, I20V, V24A, Q38R, K43Q, I70M, A72R, D77S, A79V, R119S
VL: EIVLTQSPATLSLSPGERATLSCRASQSIGTSIHWYQQKPGQAPRLLIYYASESISGIPARFSGSGSGTDFTLTISSLEPEDFAVYYCQQSNNWPLTFGGGTKVEIK
notes: Humanized IgG expressed in HEK293; also called humanized antibody VH2+VL3
B5: VH1 + VL4 (antibody, V domains shown)
VH: B1 VH with A16S, T17S, I20V, V24A, Q38R, K43Q, T74K, D77S, R119S
VL: B2 VL
notes: Humanized IgG expressed in HEK293; also called humanized antibody VH1+VL4
B6: VH3 + VL4 (antibody, V domains shown)
VH: QVQLVQSGAEVKKPGASVKVSCKASGYAFSNFWMNWVRQAPGQGLEWMGQIYPGDGDTNYNGKFKGRVTMTRDTSISTAYMELSRLRSDDTAVYYCARSYYRSAWFAYWGQGTLVTVSS
VL: B2 VL
notes: Humanized IgG expressed in HEK293; also called humanized antibody VH3+VL4
B7: VH3 + VL3 (antibody, V domains shown)
VH: B6 VH
VL: B4 VL
notes: Humanized IgG expressed in HEK293; also called humanized antibody VH3+VL3

Legend:
[1] = target: T2, MUC1 on HCT116/MUC1 cells (UniProt P15941 24-1255, limits assumed); assay: FACS titration, HCT116/MUC1 cells, antibody at 0.977 nM
T2 construct: whole, on cells; also called MUC1 overexpressed cell line
Protocol: (§1) To assess cell binding, 2×10⁵ HCT116/MUC1 cells per well were washed with PBS twice and incubated in 200 μl of serial dilutions of chimeric or humanized antibodies for 1 hour at room temperature. After washing 3 times with PBS, secondary antibody (2 μg/ml Alexa Flour®488 goat anti-human IgG) was added to cells and incubated for 30 minutes at room temperature. After washing with PBS, cells were analyzed by using FACSCalibur (BD Bioscience, San Jose, Calif.) and Flowjo software.

[2] = target: T2, MUC1 on HCT116/MUC1 cells; assay: FACS titration, HCT116/MUC1 cells, antibody at 15.625 nM
Protocol: as §1

[3] = target: T1, MUC1-SEA-His protein; assay: SPR Biacore T200, antibody captured, antigen as analyte
Protocol: Antibody affinity was determined using a Surface Plasmon Resonance (SPR) biosensor, Biacore T200 (GE Healthcare). Antibody was immobilized on the sensor chip through Fc capture method. Antigen protein was used as the analyte. The data of dissociation (kd) and association (ka) rate constants were obtained using Biacore T200 evaluation software. The apparent equilibrium dissociation constants (KD) were calculated from the ratio of kd over ka. For affinity ranking, twenty-five humanized antibodies plus chimericantibody were injected and captured on sensor chip individually. The antibodies were ranked based on their dissociation rates (kd).

[4] = target: T2, MUC1 on HCT116/MUC1 cells; assay: FACS titration, HCT116/MUC1 cells, antibody at 500 nM
Protocol: as §1

[5] = target: T2, MUC1 on HCT116/MUC1 cells; assay: FACS titration, HCT116/MUC1 cells, antibody at 62.5 nM
Protocol: as §1

[6] = target: T2, MUC1 on HCT116/MUC1 cells; assay: FACS titration, HCT116/MUC1 cells, antibody at 7.812 nM
Protocol: as §1

[7] = target: T2, MUC1 on HCT116/MUC1 cells; assay: FACS titration, HCT116/MUC1 cells, antibody at 3.906 nM
Protocol: as §1

[8] = target: T2, MUC1 on HCT116/MUC1 cells; assay: FACS titration, HCT116/MUC1 cells, antibody at 250 nM
Protocol: as §1

[9] = target: T2, MUC1 on HCT116/MUC1 cells; assay: FACS titration, HCT116/MUC1 cells, antibody at 0.488 nM
Protocol: as §1

[10] = target: T2, MUC1 on HCT116/MUC1 cells; assay: FACS titration on HCT116/MUC1 cells
Protocol: as §1

[11] = target: T2, MUC1 on HCT116/MUC1 cells; assay: FACS titration, HCT116/MUC1 cells, antibody at 1.953 nM
Protocol: as §1

[12] = target: T2, MUC1 on HCT116/MUC1 cells; assay: FACS titration, HCT116/MUC1 cells, antibody at 125 nM
Protocol: as §1

[13] = target: T2, MUC1 on HCT116/MUC1 cells; assay: FACS titration, HCT116/MUC1 cells, antibody at 0.244 nM
Protocol: as §1

[14] = target: T2, MUC1 on HCT116/MUC1 cells; assay: FACS titration, HCT116/MUC1 cells, antibody at 31.25 nM
Protocol: as §1

T2 sequence (P15941 24-1255 limits assumed): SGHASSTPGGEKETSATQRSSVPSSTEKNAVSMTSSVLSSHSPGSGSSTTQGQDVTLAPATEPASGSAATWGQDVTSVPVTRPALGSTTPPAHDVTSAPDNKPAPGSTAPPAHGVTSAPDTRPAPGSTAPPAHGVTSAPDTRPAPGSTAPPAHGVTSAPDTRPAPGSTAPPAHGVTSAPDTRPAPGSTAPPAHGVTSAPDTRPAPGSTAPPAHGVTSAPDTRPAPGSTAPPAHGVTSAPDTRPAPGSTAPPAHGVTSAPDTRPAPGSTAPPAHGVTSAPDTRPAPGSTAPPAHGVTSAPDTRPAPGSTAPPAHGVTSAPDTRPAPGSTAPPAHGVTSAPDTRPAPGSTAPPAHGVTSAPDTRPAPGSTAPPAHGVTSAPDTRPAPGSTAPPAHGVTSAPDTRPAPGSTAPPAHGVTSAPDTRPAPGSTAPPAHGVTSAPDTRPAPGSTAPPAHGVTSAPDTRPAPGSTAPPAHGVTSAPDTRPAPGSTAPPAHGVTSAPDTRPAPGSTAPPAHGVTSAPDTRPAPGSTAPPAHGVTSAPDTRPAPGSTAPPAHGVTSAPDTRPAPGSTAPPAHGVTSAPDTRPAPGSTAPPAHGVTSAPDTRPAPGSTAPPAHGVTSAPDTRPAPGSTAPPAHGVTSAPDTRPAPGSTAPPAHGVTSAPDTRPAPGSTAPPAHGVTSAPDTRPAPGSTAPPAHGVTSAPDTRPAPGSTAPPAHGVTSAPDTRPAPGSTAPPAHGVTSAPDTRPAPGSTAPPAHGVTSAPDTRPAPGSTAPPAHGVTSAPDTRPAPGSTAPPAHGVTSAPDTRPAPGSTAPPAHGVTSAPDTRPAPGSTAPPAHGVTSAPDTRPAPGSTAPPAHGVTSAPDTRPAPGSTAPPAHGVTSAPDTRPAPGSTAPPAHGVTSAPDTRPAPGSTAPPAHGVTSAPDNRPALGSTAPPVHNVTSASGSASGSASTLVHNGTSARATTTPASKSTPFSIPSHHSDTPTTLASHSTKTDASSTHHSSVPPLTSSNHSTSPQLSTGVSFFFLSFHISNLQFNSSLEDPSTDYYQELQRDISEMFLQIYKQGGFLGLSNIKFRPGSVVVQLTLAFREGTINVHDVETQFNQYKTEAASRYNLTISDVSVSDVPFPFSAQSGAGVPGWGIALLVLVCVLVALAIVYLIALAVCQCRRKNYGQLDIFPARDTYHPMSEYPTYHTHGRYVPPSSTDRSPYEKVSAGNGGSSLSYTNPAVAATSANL

| Binder | geometric mean [1] | geometric mean [2] | koff [3] | geometric mean [4] | geometric mean [5] | geometric mean [6] | geometric mean [7] | geometric mean [8] | geometric mean [9] | EC50 [10] | geometric mean [11] | geometric mean [12] | geometric mean [13] | geometric mean [14] |
| --- | --- | --- | --- | --- | --- | --- | --- | --- | --- | --- | --- | --- | --- | --- |
| B1 | 2.51 | 27 | 0.00261 s⁻¹ | 253 | 188 | 8.87 | 4.22 | 250 | 2.54 | 36.6 nM | 2.94 | 225 | 2.54 | 113 |
| B2 | 3.76 | 28.4 | 0.00741 s⁻¹ | 212 | 161 | 19 | 9.37 | 216 | 3.16 | 41.3 nM | 5.22 | 188 | 2.88 | 74.6 |
| B3 | 4.25 | 91.2 | 0.00192 s⁻¹ | 316 | 291 | 29.7 | 20 | 327 | 2.93 | 23.6 nM | 7.02 | 326 | 2.67 | 219 |
| B4 | 2.83 | 26.2 | 0.0124 s⁻¹ | 178 | 124 | 11.8 | 4.03 | 167 | 2.74 | 45.4 nM | 3.25 | 147 | 2.73 | 60.4 |
| B5 | 2.86 | 27.7 | 0.0124 s⁻¹ | 141 | 111 | 6.83 | 4.1 | 142 | 2.85 | 31.9 nM | 3.16 | 132 | 2.82 | 73.3 |
| B6 | 25.6 | 54.6 | 0.00902 s⁻¹ | 235 | 171 | 22.2 | 12 | 227 | 19.5 | 33.1 nM | 19 | 208 | 9.23 | 130 |
| B7 | 2.95 | 27.3 | 0.0152 s⁻¹ | 148 | 134 | 7.91 | 5.77 | 154 | 2.65 | 30.9 nM | 3.64 | 151 | 2.61 | 77.2 |
